Results from US20230330253A1 (LANOVA MEDICINES, published 2023).

The binders below were run against human claudin 18.2 (CLDN18.2) (human) (assay: cell-based or functional assay).

Binder | Fluorescence, pHAb internalization on MKN45-CLDN18.2 cells, 20 nM antibody, normalized by DAR | Fluorescence, pHAb internalization on MKN45-CLDN18.2 cells, 100 nM antibody, normalized by DAR
78C10B6G4 chimeric antibody (antibody, V domains shown) VH: QVQLKESGPGLVAPSQSLSITCTVSGFSLINYGVSWVRQPPGKGLEWLGVIRGDGNTNYQSALRSRLSIRKDTSKSQVFLKLNSVHTDGTATYYCAKVGRGNAMDHWGQGISVIVSS VL: DIVMTQSPSSLTVTAGEKVTMSCKSSQSLLNSGNQKNYLTWYQQRPGQPPKLLIYRASSRESGVPVRFTGSGSGTDFTLTISSVQAEDLAVYYCQNDYIYPYTFGGGTKLEMN | 16200 | 29100
110C12B6 chimeric antibody (antibody, V domains shown) VH: EVQLQQSGPELVKPGASVKMSCKSSGYTFTGFLMHWVKQKPGQGLEWIGYINPYNDGTKYSEKFKGKATLTSDKSSSTAYMELSSLTSDDSAVYYCGRLDYGNAMDYWGQGTSVTVSS VL: DIVMTQSPSSLTVTAGEKVTMRCRSTQSLFNSGNQRNYLTWYQQKPGQPPKLLIYWASTRESGVPDRFTGSGSGTDFTLTISSVQAEDLAVYYCQNAYYYPLTFGVGTKLERK | 19300 | 40100
116A8B7 chimeric antibody (antibody, V domains shown) VH: EVQLQQSGPELVKPGASVKMSCKSSGYTFTGFLMHWVKQKPGQGLEWIGYINPYNDGTKYSEKFKGKATLTSDKSSSTAYMELSSLTSDDSAVYYCGRLDYGNAMDYWGQGTSVTVSS VL: DIVMTQSPSSLTVTAGEKVTMRCRSTQSLFNSGNQRNYLTWYQQKPGQPPKLLIYWASTRESGVPDRFTGSGSGTDFTLTISSVQAEDLAVYYCQNAYYYPLTFGVGTKLERK | 21400 | 41700
103A10B2 chimeric antibody (antibody, V domains shown) VH: QVQLKESGPGLVAPSQSLSITCTVSGLSLTSFGVHWIRQPPGKGLEWLGVIWAGGSTNYNSALMSRLSISKDNSKSQVYLKMHSLQTDDTAMYYCARSLYGNSFDYWGQGTALTVSS VL: DIVMTQSPSSLTVTPGEKVTMSCRSSMSLFNSGNQKSYLSWYHQKPGQPPKLLIYWASTRDSGVPVRFTGSGSGTDFTLTISSVQAEDLAVYYCHNDYIYPLTFGAGTKLELK | 12000 | 31300
84E9E12 chimeric antibody (antibody, V domains shown) VH: DVQLQESGPGLVKPSQSLSLSCSVTGYSITSGYFWTWFRQFPGNKLEWMGYISYDGSNNYNPSLKNRISITRDTSKNQFFLKLNSVTTEDTATYYCASFRFFAYWGQGTLVTVSA VL: DIVMTQSPSSLTVTTGEKVTMSCKSSQSVFNSGNQKNYLTWYQQKPGQPPKLLVYWASTRESGVPARFTGSGSGTVFTLTISSVQAEDLAVYYCQNDYYFPLTFGAGTRLELK | 18700 | 35100
58G2C2 chimeric antibody (antibody, V domains shown) VH: QVHLQQSGAEVVRPGTSVKVSCKASGYAFTNYLIEWIKKRPGQGLEWVGVINPGRSGTNYNEKFKGKATLTADKSSSTAYMQLSSLTSDDSAVYFCARTRYGGNAMDYWGQGTSVTVSS VL: DIVMTQSPSSLTVTAGEKVTMSCKSSQSLLNSGNQKNYLTWYQQKPGQPPTLLIFWAFTRESGVPDRFTGSGSGTDFTLTINSVQAEDLAVYYCQNSYSYPFTFGSGTKLEIK | 18600 | 33100
15C2B7 chimeric antibody (antibody, V domains shown) VH: QIQLVQSGPELRKPGETVKISCKASGYTFTNYGMNWVKQAPGKGLKWMAWINANTGEPTYAEEFKGRFAFSLETSARSAYLQINSLKNEDTATYFCARLTRGNSFDYWGQGTTLTVSS VL: DIVMTQSPSSLTVTAGGKVTVSCKSSQSLLNSGNQKNYLTWYQQKPGQPPKLLIYWASTRESGVPDRFTGSGSGTDFTLTISSVQTEDLAVYYCQNNYYFPLTFGAGTKLELK | 19400 | 33200
119G11D9 chimeric antibody (antibody, V domains shown) VH: EVQLQQSGPELVKPGASVKMSCKASGYTFTGFLMHWVKQKPGQGLEWIGYINPYNDGTKYSEKFKGKATLTSDKSSSTAFMELSSLTSDDSAVYYCARLDYGNAMDYWGQGTSVTVSS VL: DIVMTQSPSSLTVTAGERVTMRCRSTQSLFNSGNQKNYLTWYQQKPGQPPKLLIYWASTRESGVPDRFTGGGSGTDFTLTISSVQAEDLAVYYCQNAYYYPLTFGAGTKLERK | 21400 | 34000
85H12E8 chimeric antibody (antibody, V domains shown) VH: QVQLKESGPGLVAPSQSLSITCTVSGFSLSNYGVSWVRQPPGKGLEWLGVIWAGGNTNYNSALMSRLRISKDNSKSQVFLKMNSLQTDDTARYYCARHGYGKGNAMDNWGQGTSVTVSS VL: DIVMTQSPSSLTVTAGEKVTMNCKSSQSLLNSGNQRNYLSWYQQEPGQPPKLLIYWASTRESGVPDRFTGSGSGTDFTLTISNIQAEDLALYFCQNAYFYPFTFGSGTKLEIK | 19700 | 29100

Further lines, results first:

Fluorescence, pHAb internalization on MKN45-CLDN18.2 cells, 20 nM antibody, normalized by DAR | Fluorescence, pHAb internalization on MKN45-CLDN18.2 cells, 100 nM antibody, normalized by DAR | Binder
18400 | 26100 | 44F6B11 chimeric antibody (antibody, V domains shown) VH: EVQLVESGGDLVKPGGSLKLSCAASGFTFSNYGMSWVRQTPDKRLEWVATFSYGDSHNYYSDSVKGRFTISRDIAKDALYLQMSSLRSEDTAIYYCARFGRGNTMDYWGQGTSVTVSL VL: DIVMTQSPSSLTVTAGEKVIMSCKSNQSLLNSGNQKKYLTWYQQKPGQSPKLLIYWASTRESGVPDRFTGSESGTDFTLTISSVRAEDLAVYYCQNGYSYPFTFGSGTKLEMK
21100 | 45100 | 20F1E10 chimeric antibody (antibody, V domains shown) VH: QIQLVQSGPELKKPGETVKISCKASGYTFTKYGMNWVRQAPGKGLKWMGWISTNTGEPTYAEEFKGRFAFSLETSASTAFLQINNLKNEDTATYFCARLVRGNSFDFWGQGITLTVSS VL: DIVMTQSPSSLTVTAGEKVTMSCKSSQSLFNSGNQRNYLTWYQQKPGQPPKLLIYWASTRESGVPDRFTGSGSGTDFILTITKVQAEDLAVYYCQNVYSYPLTFGAGTKLELK
15100 | 20500 | 65G8B8 chimeric antibody (antibody, V domains shown) VH: QVQLKESGPGLVAPSQSLSITCTVSGFSLTSYGVSWVRQPPGKGLEWLGVIWGDGNTIYHSALKSRLSISRDNSKRQVFLKVNSLQIDDTATYYCAKQGLYGHAMDYWGQGTSVIVSS VL: DIMMTQSPSSLTVTTGEKVTLTCKSSQSLLNSGNLKNYLTWYQQKPGHPPKLLIYWASTRESGVPVRFTGSGSGTDFTLTISSVQAEDLTVYYCQNVYIYPFTFGSGTKLEMR
19900 | 28700 | 56E8F10F4 chimeric antibody (antibody, V domains shown) VH: DVQLVESGGGLVQPGGSRKLSCTASGFTFNSFGMNWVRQAPEKGLEWVAFISGGSNTIHYLDTVKGRFTISRDNPKNTLFLQMTSLRSEDTAMYYCTRLALGNAMDYWGQGTSVIVSS VL: DIVMTQSPSSLTVTAGEKVTMSCKSSQSLLNSGNQKNYLTWYQQKPGQPPKLLIYWASTRESGVPDRFTGSGSGTYFTLTISSVQAADLAVYYCQNDYYFPFTFGSGTKLEIK
9600 | 35500 | 10G7G11 chimeric antibody (antibody, V domains shown) VH: QVQLKESGPGLVAPSQSLSITCTISGFSLNTYGVHWVRQPPGKGLEWLVVMLSDGNTVYNSSLKSRLSLTKDNSKSQLLLKMNSLQTDDTAIYYCARHKAYGNAMDYWGQGTSVTVSS VL: DIVMTQSPSSLTVTAGEKVTMTCKSSQSLFNSGNQRNYLTWYQRKPGQPPKLLIYWASTRESGVPDRFTGSGSGTYFTLTVSSVQAEDLAVYYCQNAYYFPFTFGSGTKLEKK
15200 | 44400 | 101C4F12 chimeric antibody (antibody, V domains shown) VH: QVQLKESGPGQVAPSQSLSIACTVSGFSLSSYGVHWVRQPPGKGLEWLGVIWAGGSTNYDSALMSRLTISKDNSRTRVFLKMNSLQTDDTAIYYCARSLYGNSLDSWGPGTTLTVSS VL: DIVMTQSPSSLTVTAGEKVTMSCKSSQSLLNSGNQRNYLTWYQQKPGQPPRLLIYWSSTRDSGVPDRFTGSGSRTDFTLTISSVQAEDLAVYYCQNNFIYPLTFGAGTKLELK
11000 | 28900 | 113G12E5E6 chimeric antibody (antibody, V domains shown) VH: QVQLKQSGPGLVQPSQSLSITCTVSDFSLTKYGVHWFRQSPGKGLEWLGVIWTGGNTDYNPALIPRLSFRKDNSKSQVFFKMNSLQSSDTAVYYCARNGYYGNAMDYWGQGTSVTVSS VL: DIVMTQSPSSLTVTAGERVTMSCKPSQSLLNSGNQKNYLAWYQQKPGQPPKLLLYWASTRESGVPDRFKGSGSGTDFTLTISSVQAEDLAVYYCQNAYFYPCTFGGGTKLEMK
14800 | 43100 | 105F7G12 chimeric antibody (antibody, V domains shown) VH: QVQLKQSGPGLVQPSQSLSITCTVSDFSLTKYGVHWFRQSPGKGLEWLGVIWTGGNTDYNPALIPRLSFRKDNSKSQVFFKMNSLQSSDTAVYYCARNGYYGNAMDYWGQGTSVTVSS VL: DIVMTQSPSSLTVTAGERVTMSCKSSQSLLNSGNQKNYLAWYQQKPGQPPKLLLYWASTRESGVPDRFKGSGSGTDFTLTISSVQAEDLAVYYCQNAYFYPCTFGGGTKLEMK
31200 | 49100 | 103F4D4 chimeric antibody (antibody, V domains shown) VH: QVQLQQSGAELARPGASVKMSCKASGYTFPTYSIHWLKQGPGQGLEWIGYINPSTIYTNYNQKFKYKATLTADKSSSTAYIQLSSLTSDDSAVYYCAREGYGRGNAMDYWGQGTSVTVSS VL: DIVMTQSPSSQTVTAGEKVTLSCRSSQSLLNGGNQKNYLTWYQQKPGQPPKLLIYWASTRESGVPDRFTGSGSGTYFTFTISSVQAEDLAVYYCQNAYFYPFTFGAGTKLELK
